The target of assay [1] is full length human FGFR3b S249C on BaF3 cells (BAF3/FGFR3b_S249C, ACL11986) (human, UniProt P22607 23-808). Briefly: cell-based or functional assay.
The target of assay [2] is full length human FGFR3b on BaF3 cells (BAF3/FGFR3b, ACL11991) (human, UniProt P22607 23-808). The assay can be described thus: cell-based or functional assay.
The target in assay [3] is T1, cynomolgus FGFR3b expressed with a C-terminal myc-myc-hexahistidine tag (mfFGFR3b.mmH) (cynomolgus).
T1 construct: also called REGN3521; mf FGFR3b ecto (R357G)(E23-G377;R357G).mmH
T1 chain: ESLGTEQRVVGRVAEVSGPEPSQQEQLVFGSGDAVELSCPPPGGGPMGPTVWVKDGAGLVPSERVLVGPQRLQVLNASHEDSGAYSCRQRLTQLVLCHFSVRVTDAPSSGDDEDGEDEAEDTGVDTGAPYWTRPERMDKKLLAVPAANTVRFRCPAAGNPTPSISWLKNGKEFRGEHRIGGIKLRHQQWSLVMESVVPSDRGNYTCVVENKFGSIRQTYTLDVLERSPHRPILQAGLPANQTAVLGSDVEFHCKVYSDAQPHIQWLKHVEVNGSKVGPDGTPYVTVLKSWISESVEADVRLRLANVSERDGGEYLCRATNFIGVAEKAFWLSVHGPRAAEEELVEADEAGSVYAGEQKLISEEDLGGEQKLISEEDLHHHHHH
Briefly: SPR Biacore, mAb captured on anti-hFc, 25C. As for the experimental part:
(§1) The CM5 Biacore sensor surface was derivatized by amine coupling with a monoclonal mouse anti-human Fc monoclonal antibody (REGN2567). […] Antibody-reagent association was monitored for 5 minutes while dissociation in HBS-EP running buffer was monitored for 10 minutes. At the end of each cycle, the anti-FGFR3 antibody capture surface was regenerated using a 10 sec injection of 20 mM phosphoric acid. All binding kinetics experiments were performed at 25° C.
(§2) The specific SPR-Biacore sensorgrams were obtained by a double referencing procedure. The double referencing was performed by first subtracting the signal of each injection over a reference surface (anti-hFc) from the signal over the experimental surface (anti-hFc-captured anti-FGFR3 antibodies) thereby removing contributions from refractive index changes. In addition, running buffer injections were performed to allow subtraction of the signal changes resulting from the dissociation of captured antibodies from the coupled anti-hFc surface. Kinetic association (kₐ) and dissociation (kd) rate constants were determined by fitting the real-time sensorgrams to a 1:1 binding model using Scrubber v2.0c curve fitting software.

Assay [4] concerns the target T2, murine FGFR3b expressed with a C-terminal myc-myc-hexahistidine tag (mFGFR3b.mmH) (murine).
T2 construct: also called REGN3215; monomeric murine FGFR3b
T2 chain: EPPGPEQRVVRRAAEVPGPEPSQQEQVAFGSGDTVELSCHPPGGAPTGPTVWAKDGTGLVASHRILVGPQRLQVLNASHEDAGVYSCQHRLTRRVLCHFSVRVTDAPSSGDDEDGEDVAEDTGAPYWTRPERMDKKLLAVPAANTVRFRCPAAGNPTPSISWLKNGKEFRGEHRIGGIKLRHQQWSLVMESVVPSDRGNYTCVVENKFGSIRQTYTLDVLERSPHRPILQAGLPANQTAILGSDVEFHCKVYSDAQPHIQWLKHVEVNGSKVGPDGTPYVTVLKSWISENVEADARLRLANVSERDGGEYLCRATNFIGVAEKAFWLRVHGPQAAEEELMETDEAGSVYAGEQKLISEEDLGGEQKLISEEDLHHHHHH
The assay can be described thus: SPR Biacore, mAb captured on anti-hFc, 25C; row marked NB. As for the experimental part:
as §1, §2

Assay [5] deals with T3, human FGFR3b expressed with a C-terminal murine Fc tag (hFGFR3b.mFc) (human).
T3 construct: called dimeric; also called REGN3153; dimeric human FGFR3b
T3 chain: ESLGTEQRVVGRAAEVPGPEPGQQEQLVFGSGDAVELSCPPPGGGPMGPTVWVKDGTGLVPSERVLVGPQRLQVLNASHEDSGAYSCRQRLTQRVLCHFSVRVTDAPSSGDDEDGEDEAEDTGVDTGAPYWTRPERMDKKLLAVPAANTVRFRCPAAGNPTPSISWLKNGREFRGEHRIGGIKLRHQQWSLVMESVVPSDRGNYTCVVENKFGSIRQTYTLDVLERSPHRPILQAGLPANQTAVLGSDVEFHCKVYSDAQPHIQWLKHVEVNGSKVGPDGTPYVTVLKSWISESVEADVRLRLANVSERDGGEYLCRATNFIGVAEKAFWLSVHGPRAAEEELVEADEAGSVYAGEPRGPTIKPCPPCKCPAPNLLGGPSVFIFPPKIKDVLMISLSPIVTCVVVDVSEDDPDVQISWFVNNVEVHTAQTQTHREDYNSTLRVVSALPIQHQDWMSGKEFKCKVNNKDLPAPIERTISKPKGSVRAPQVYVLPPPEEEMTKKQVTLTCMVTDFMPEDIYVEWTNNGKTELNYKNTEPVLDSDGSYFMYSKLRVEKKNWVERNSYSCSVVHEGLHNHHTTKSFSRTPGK
The assay can be described thus: SPR Biacore, mAb captured on anti-hFc, 25C. As for the experimental part: as §1, §2
In general terms: SPR reads the build-up and loss of mass on a sensor chip optically.

The target of assay [6] is T4, human FGFR3c expressed with a C-terminal myc-myc-hexahistidine tag (hFGFR3c.mmH) (human, UniProt P22607 23-375).
T4 construct: also called REGN3155; monomeric human FGFR3c
Briefly: SPR Biacore, mAb captured on anti-hFc, 25C. The method, then: as §1, §2

The target of assay [7] is T5, human FGFR3b expressed with a C-terminal myc-myc-hexahistidine tag (hFGFR3b.mmH) (human).
T5 construct: also called REGN3152; monomeric human FGFR3b
T5 chain: T1 chain with V13A, S17P, S22G, A57T, L94R, K171R
Briefly: SPR Biacore, mAb captured on anti-hFc, 25C. As for the experimental part: as §1, §2

The target in assay [8] is T3, human FGFR3b expressed with a …. Briefly: competition ELISA: 4 nM hFGFR3b-mFc binding to plate-coated hFGF acidic. As for the experimental part:
The fixed concentration of hFGFR3b or hFGFR3c proteins was selected to be near the concentration that generated 50% of the maximal binding (EC₅₀ value) to plate-adhered hFGF acidic or hFGF basic protein. […] The plates were then developed using TMB substrate solution (BD Biosciences) according to the manufacturer's recommended procedure and absorbance at 450 nm was measured on a Victor X5 plate reader.
Binding data were analyzed using a sigmoidal (four-parameter logistic) dose-response model using GraphPad Prism software. […] Percent blocking of FGFR3 antibody at a given concentration was calculated based on the formula shown below.
The ability of anti-FGFR3 antibodies to block human FGFR3b binding to hFGF acidic protein or hFGFR3c binding to hFGF acidic or hFGF basic proteins was evaluated using a sandwich ELISA-based blocking assay.
A general note: An ELISA detects its analyte on a solid surface through an enzyme-linked reagent.

Assay [9] addresses T4, human FGFR3c expressed with a …. Briefly: SPR Biacore, mAb captured on anti-hFc, 25C; row marked NB. As for the experimental part: as §1, §2
In assay [10] the target is T2, murine FGFR3b expressed with a …. The assay can be described thus: SPR Biacore, mAb captured on anti-hFc, 25C. The method, then: as §1, §2

The text below walks through data of patent US20240158515A1 (Regeneron, published 2024).

Positions count from the first letter of the chain named. Where only a bound is given, the exact number is not on record here.

B1: H4H30102P2 (antibody, human IgG4 S228P, kappa, V domains shown)
VH: EVQLVESGGDLVQPGGSLRLSCAASGFTFSSYEMNWVRQAPGKGLEWVSYISNSGSTIYYADSVKGRFTISRDNAETSLYLQMNSLRAEDTAVYYCAREGWGAYCAGDCYSGFDIWGQGTMVTVSS
VL: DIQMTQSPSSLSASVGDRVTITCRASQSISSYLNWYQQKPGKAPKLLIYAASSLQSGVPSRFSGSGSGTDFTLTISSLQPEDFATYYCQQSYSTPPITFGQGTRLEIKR
In the case of B1, the “Max Blocking (%), BaF3 proliferation (CellTiter-Glo) with 1 nM FGF1 + 5 ug/ml heparin” value in assay [1] was 34.5%. Moreover, in [2], the “IC50 [M], BaF3 proliferation (CellTiter-Glo) with 1 nM FGF1 + 5 ug/ml heparin” value was determined as 1.86e-08 M and the “Max Blocking (%), BaF3 proliferation (CellTiter-Glo) with 1 nM FGF1 + 5 ug/ml heparin” value came out at 41.1%. In [3], the “90 nM mfFGFR3b.mmH Bind (RU)” value is 126 RU, the Kd was found to be 1.75 nM, the koff was 0.00023 s⁻¹ and the kon came to 131000 M⁻¹ s⁻¹. For the same molecule, in assay [3], the “t½” value is 50.2 min.

B2: H4H30061P (antibody, human IgG4 S228P, kappa, V domains shown)
VH: EVQLVESGGGLAQPGGSLKLSCEASGFTFSDSAMHWVRQASGKGLEWVGRIRSKANSYATGYAASVKGRFTISRDDSKNMAFLEMNSLKTEDTAVYYCLRQTYGDPWGQGTLVTVSS
VL: DVVMTQSPLSLSVTLGQPASISCRSSLSLVYSDGNNYLNWFQQRPGQSPRRLLYKVFNRDSGVPDRFSGSGSGTDFTLKISRVEAEDVGVYYCMQGTHWPWTFGQGTKVEIKR
In the case of B2, in assay [4], the “90 nM mFGFR3b.mmH Bind (RU)” value was -8.5 RU. In addition, in assay [5], the “30 nM hFGFR3b.mFc Bind (RU)” value was 260 RU, the Kd is at most 0.0433 nM, the koff is at most 1e-05 s⁻¹ and the kon came out at 231000 M⁻¹ s⁻¹. Further, in assay [5], the “t½” value is at least 1160 min. In assay [6], the “90 nM hFGFR3c.mmH Bind (RU)” value was 204 RU, the Kd is 0.526 nM, the koff is 7.92e-05 s⁻¹ and the kon amounted to 151000 M⁻¹ s⁻¹. Besides, in assay [6], the “t½” value was 146 min. In [7], the “90 nM hFGFR3b.mmH Bind (RU)” value amounted to 249 RU, the Kd is 0.506 nM, the koff was 8.74e-05 s⁻¹ and the kon worked out at 173000 M⁻¹ s⁻¹. In addition, the “t½” value in [7] was found to be 132 min. Besides, in [3], the “90 nM mfFGFR3b.mmH Bind (RU)” value amounted to 197 RU, the Kd was 0.65 nM, the koff worked out at 9.83e-05 s⁻¹ and the kon stood at 151000 M⁻¹ s⁻¹. In addition, in assay [3], the “t½” value stood at 118 min.

B3: H4H30066P (antibody, human IgG4 S228P, kappa, V domains shown)
VH: QVQLVQSGAEVKKPGASVKVSCKVSGYTLTELSMHWVRQAPGKGLEWMGGFDPEDGEIIYAQKFQGRVTMTEDTSTDTAYMDLSSLTSEDTAVYYCATEKQQLVRKYYFYYGLAVWGQGTTVTVSS
VL: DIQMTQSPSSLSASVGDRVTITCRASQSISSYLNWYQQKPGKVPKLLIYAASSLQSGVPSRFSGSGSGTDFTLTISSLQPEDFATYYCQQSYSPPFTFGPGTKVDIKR
notes: HCVR 22, LCVR 30
With B3, in assay [8], the “% Blocking at 200 nM mAb” value was found to be 90% and the IC50 turned out to be 3.2 nM. Also, the “90 nM hFGFR3c.mmH Bind (RU)” value in [9] was found to be 0.5 RU. In [5], the “30 nM hFGFR3b.mFc Bind (RU)” value worked out at 282 RU, the Kd was at most 0.0158 nM, the koff is at most 1e-05 s⁻¹ and the kon is 632000 M⁻¹ s⁻¹. In addition, the “t½” value in assay [5] was at least 1160 min. Moreover, in [6], the binding result is given as “no binding (tested: 90 nM)”. In assay [7], the “90 nM hFGFR3b.mmH Bind (RU)” value came out at 224 RU, binding was put at a Kd of 1.28 nM, the dissociation rate constant (koff) was found to be 0.000635 s⁻¹ and the kon amounted to 496000 M⁻¹ s⁻¹. Further, the “t½” value in assay [7] was 18.2 min. In addition, in [3], the “90 nM mfFGFR3b.mmH Bind (RU)” value was 203 RU, the dissociation constant Kd turned out to be 1.99 nM, the koff came to 0.000779 s⁻¹ and the on-rate (kon) is 391000 M⁻¹ s⁻¹. The “t½” value in assay [3] turned out to be 14.8 min. Also, in [10], the “90 nM mFGFR3b.mmH Bind (RU)” value amounted to 64.6 RU, the Kd stood at 16.9 nM, the koff was determined as 0.00487 s⁻¹ and the kon turned out to be 288000 M⁻¹ s⁻¹. For the same molecule, the “t½” value in assay [10] came out at 2.4 min.

B4: H4H30045P (antibody, human IgG4 S228P, kappa, V domains shown)
VH: QVQLVQSGAEVKKPGASVKVSCKTSGYRFVNYGFSWVRQAPGQGLEWMGWISPYNGNTNYIQNLQDRITMTTDTSTNTAYMELTNLRSDDTAVYYCATLTGVHFDYWGQGTLVTVSS
VL: AIQMTQSPSSLSASVGDRVTITCRASQGIRNDLGWYQQKPGKAPNLLIFETSRLQSGVPSRFSGSGSGTDFTLTINSLQPEDFATYYCLQDYNYPWTFGQGTKVEIKR
notes: HCVR 179, LCVR 187
Regarding B4, the “90 nM mFGFR3b.mmH Bind (RU)” value in [4] amounted to 2.4 RU. In [5], the “30 nM hFGFR3b.mFc Bind (RU)” value was 266 RU, the Kd turned out to be 0.581 nM, the koff was found to be 0.000161 s⁻¹ and the kon came to 277000 M⁻¹ s⁻¹. The “t½” value in [5] worked out at 71.8 min. Also, in assay [6], the “90 nM hFGFR3c.mmH Bind (RU)” value was determined as 77.1 RU, the Kd came out at 19.6 nM, the off-rate constant (koff) amounted to 0.00746 s⁻¹ and the kon worked out at 381000 M⁻¹ s⁻¹. In addition, the “t½” value in assay [6] is 1.5 min. In addition, in assay [7], the “90 nM hFGFR3b.mmH Bind (RU)” value turned out to be 124 RU, the Kd stood at 16.2 nM, the koff was 0.00624 s⁻¹ and the kon turned out to be 385000 M⁻¹ s⁻¹. Moreover, the “t½” value in [7] was found to be 1.9 min. In assay [3], the “90 nM mfFGFR3b.mmH Bind (RU)” value was 71.9 RU, the Kd turned out to be 20.6 nM, the koff came to 0.00882 s⁻¹ and the kon was found to be 429000 M⁻¹ s⁻¹. Moreover, the “t½” value in assay [3] is 1.3 min. For the same molecule, the binding result in [10] was “no binding (tested: 90 nM)”.

A word on the Kd: it is the concentration at which binding is half-saturated. A word on the koff: it is the rate constant with which the complex falls apart. Low readings indicate a long-lived complex, high ones a short-lived complex. A word on the kon: it is the rate constant with which the complex forms. Read a high kon as fast association. By t½ is commonly meant the time needed for the level to fall by half in the phase considered. The term IC50 denotes the midpoint of a concentration-inhibition curve.
